Reference: patent US6682898B2, “High-throughput screening assays for modulators of STAT4 activity” (Tularik Inc., priority 1998, dated 2004)
Non-standard residues stand in square brackets, D forms with d. No end group written: not given here. pY = N[C@@H](Cc1ccc(OP(=O)(O)O)cc1)C(=O)O

How the values were obtained:
Ras-GAP = target: T1, Ras-GAP (Homo sapiens, UniProt P20936); assay: SH2 domain protein binding assay, Ras-GAP; set-up: key: +++ = high affinity binding
T1 sequence (P20936 1-1047): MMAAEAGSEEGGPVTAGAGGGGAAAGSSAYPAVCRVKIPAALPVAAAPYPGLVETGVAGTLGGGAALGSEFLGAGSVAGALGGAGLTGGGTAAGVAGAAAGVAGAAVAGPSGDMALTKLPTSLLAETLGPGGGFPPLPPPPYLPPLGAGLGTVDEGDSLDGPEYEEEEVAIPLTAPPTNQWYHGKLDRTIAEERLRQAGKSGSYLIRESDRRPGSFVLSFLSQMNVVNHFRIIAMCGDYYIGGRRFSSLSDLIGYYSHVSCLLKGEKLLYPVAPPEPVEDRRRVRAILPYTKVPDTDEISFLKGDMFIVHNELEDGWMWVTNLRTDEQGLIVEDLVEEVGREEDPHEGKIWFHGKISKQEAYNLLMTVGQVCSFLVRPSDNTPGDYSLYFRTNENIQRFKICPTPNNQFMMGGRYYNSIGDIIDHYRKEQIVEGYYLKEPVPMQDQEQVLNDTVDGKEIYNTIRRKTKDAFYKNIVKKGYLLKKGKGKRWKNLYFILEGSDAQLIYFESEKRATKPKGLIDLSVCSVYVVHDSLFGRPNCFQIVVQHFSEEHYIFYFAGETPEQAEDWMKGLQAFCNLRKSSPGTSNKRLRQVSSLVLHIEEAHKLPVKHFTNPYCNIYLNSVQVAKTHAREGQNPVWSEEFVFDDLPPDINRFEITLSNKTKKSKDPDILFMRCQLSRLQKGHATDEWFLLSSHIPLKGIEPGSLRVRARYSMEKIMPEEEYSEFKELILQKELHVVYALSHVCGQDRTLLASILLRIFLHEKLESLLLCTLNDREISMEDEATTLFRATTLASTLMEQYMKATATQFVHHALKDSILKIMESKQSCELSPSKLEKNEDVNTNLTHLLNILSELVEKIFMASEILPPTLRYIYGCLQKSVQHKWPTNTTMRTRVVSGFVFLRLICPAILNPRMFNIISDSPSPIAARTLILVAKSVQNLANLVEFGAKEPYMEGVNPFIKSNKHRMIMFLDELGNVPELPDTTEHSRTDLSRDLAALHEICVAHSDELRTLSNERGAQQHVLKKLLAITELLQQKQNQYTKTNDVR
Excerpt: (§1) This Example describes binding assays for various proteins that contain SH2 domains.

Syp = target: T2, Syp (Homo sapiens, UniProt Q06124); assay: SH2 domain protein binding assay, Syp; set-up: key: +++ = high affinity binding
T2 sequence (Q06124 1-593): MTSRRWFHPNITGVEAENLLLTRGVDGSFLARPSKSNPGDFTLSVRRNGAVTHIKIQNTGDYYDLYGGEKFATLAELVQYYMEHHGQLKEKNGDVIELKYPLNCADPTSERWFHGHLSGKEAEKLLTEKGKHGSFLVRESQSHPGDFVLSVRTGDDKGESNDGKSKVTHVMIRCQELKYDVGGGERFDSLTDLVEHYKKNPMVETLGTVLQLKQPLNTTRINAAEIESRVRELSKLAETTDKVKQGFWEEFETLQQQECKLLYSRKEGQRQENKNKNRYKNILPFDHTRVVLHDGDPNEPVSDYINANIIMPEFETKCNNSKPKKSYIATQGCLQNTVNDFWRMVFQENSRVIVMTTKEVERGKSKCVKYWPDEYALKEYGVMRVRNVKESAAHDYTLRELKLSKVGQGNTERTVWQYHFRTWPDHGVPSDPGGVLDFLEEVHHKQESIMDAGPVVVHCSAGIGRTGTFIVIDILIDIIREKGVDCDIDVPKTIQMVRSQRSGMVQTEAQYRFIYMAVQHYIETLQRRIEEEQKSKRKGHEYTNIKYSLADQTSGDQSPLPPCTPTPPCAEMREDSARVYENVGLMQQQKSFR
Excerpt: as §1

| Substance | binding to Ras-GAP (Ras-GAP) | binding to Syp (Syp) |
| --- | --- | --- |
| YMAP: phosphotyrosine-containing peptide ligand ([pY]MAP) | +++ | – |
| YTAVQP: phosphotyrosine-containing peptide ligand ([pY]TAVQP) | – | +++ |
